Assay results taken from patent US11471494B2, “Microorganisms programmed to produce immune modulators and anti-cancer therapeutics in tumor cells” (Synlogic Operating Company, Inc., priority 2017, dated 2022).

Legend:
[1] = biological target: T1, murine CD47 on CT26 cells (Mus musculus, UniProt Q61735); experiment: Competition assay on CT26 cells (flow cytometry); assay type: cell-based; conditions: secreted FD6x2sirpα or FD6sirpαhIgG4
T1 construct: CT26 is a mouse colon carcinoma cell line which expresses CD47 on its cell surface; endogenous in cells; host or cells: CT26 mouse colon carcinoma cells
T1 sequence (Q61735 19-303): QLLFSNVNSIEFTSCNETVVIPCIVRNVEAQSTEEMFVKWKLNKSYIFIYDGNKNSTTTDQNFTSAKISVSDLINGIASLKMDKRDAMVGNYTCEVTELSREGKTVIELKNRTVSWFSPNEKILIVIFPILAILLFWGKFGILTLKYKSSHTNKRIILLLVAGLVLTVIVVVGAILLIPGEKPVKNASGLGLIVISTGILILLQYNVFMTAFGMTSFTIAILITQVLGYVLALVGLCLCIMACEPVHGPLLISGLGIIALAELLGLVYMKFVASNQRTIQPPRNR
Procedure: Next, a competition assay was conducted to determine whether the murine SIRPα secreted by the genetically engineered bacteria could compete with the binding of a recombinant mSIRPα or an anti-CD47 antibody to murine CD47 on CT26 cells. CT26 cells were grown and flow cytometry protocol was conducted essentially as described above except that recombinant SIRPα (Rndsystems) or an anti-CD47 antibody (Biolegend) was added during the incubation of the secreted FD6×2sirpα or FD6sirpαhIgG4. FIG. 29 and FIG. 30 show the results of the competition with recombinant SIRPalpha and anti-CD47 antibody, respectively.

[2] = biological target: T2, mCD47 (Mus musculus, UniProt Q61735); experiment: SIRPα/CD47 ELISA binding assay of supernatants; conditions: supernatant
T2 sequence (Q61735 19-303): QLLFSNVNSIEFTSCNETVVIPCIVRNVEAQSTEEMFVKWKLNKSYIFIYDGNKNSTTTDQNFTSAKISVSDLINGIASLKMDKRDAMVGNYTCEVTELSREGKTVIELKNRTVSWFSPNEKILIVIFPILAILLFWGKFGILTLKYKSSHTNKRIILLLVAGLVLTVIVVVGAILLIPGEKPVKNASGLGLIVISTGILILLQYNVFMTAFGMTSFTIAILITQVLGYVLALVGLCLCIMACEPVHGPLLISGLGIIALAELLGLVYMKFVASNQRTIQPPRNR

[3] = SIRPα/CD47 ELISA binding assay, control coatings; conditions: supernatant
[4] = biological target: T3, mPD1 (Mus musculus, UniProt Q02242); experiment: ELISA binding assay of bacterial extracts (J43-scFv); conditions: α-V5-HRP
T3 construct: purchased Rndsystems
T3 sequence (Q02242 25-288): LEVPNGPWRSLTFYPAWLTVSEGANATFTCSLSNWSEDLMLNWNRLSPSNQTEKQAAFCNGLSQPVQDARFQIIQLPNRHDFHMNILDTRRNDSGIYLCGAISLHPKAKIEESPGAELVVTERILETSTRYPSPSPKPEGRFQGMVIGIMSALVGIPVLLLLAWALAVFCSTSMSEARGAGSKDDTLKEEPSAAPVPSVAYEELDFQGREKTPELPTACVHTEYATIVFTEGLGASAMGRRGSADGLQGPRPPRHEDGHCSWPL
Procedure: (§1) E. coli comprising either tet-inducible J43-Anti-PD1-scFv-V5 or wild type controls were grown overnight in LB medium. […] Same amount of tetracycline was added to wild type control cultures.
(§2) To determine whether the single-chain antibody purified from E. coli DH5α functionally binds to the target protein, PD1, an ELISA assay was performed.

[5] = ELISA binding assay of bacterial extracts (J43-scFv), control coatings; conditions: α-V5-HRP
Procedure: as §1, §2

[6] = biological target: T4, PD1 on mouse EL4 cells (Mus musculus, UniProt Q02242); experiment: Flow cytometry, binding of anti-PD1-scFv to EL4 cells; assay type: cell-based
T4 construct: EL4 are a mouse lymphoma cell line which expresses PD1 on its cell surface; endogenous in cells; host or cells: EL4 mouse lymphoma cells
T4 sequence (Q02242 25-288): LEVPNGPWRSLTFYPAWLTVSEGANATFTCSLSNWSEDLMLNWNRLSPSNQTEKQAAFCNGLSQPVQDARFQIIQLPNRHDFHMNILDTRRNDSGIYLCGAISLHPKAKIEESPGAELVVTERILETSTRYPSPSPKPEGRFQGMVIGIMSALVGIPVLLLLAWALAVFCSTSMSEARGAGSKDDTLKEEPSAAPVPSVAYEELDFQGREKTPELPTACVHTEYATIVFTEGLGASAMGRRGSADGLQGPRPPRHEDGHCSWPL
Procedure: To determine whether anti-PD1-scFv expressed in E. coli binds to surface PD1 on mouse EL4 cells, flow cytometric analysis was performed using EL4 cells. EL4 are a mouse lymphoma cell line which expresses PD1 on its cell surface.
EL4 cells were grown in Dulbecco's Modified Eagle's Medium (DMEM) with 10% FBS. Cells were spun down, supernatant was aspirated, pellet was resuspended in 1 ml D-PBS, transferred into chilled assay tubes (1×10^6 cells), and washed 2-3 times in D-PBS with 0.5% BSA. Cells were resuspended in PBS with 0.5% BSA, to which the purified scFv-V5 and anti-V5-FITC antibody were added and incubated for 1 hour at room temperature. Negative control left out scFv-V5. Cells were resuspended in 0.5 ml PBS and analyzed on a flow cytometer.
EL4 are a mouse lymphoma cell line which expresses PD1 on its cell surface.
EL4 cells were grown in Dulbecco's Modified Eagle's Medium (DMEM) with 10% FBS and 1% Penicillin-Streptomycin Cells were spun down, supernatant was aspirated, pellet was resuspended in 1 ml D-PBS, transferred into chilled assay tubes (1×10^6 cells), and washed 3 times in D-PBS. Cells were resuspended in D-PBS with 0.5% BSA, to which the purified scFv-V5 and anti-V5-FITC antibody were added and incubated for 1 hour at room temperature. Negative control left out secreted J43-scFv-V5. Cells were then resuspended in 0.5 ml PBS and analyzed on a flow cytometer. Results are shown in (FIG. 20).

[7] = biological target: T5, mPD1 on the surface of EL4 cells (Mus musculus, UniProt Q02242); experiment: PDL1 competition assay on EL4 cells (flow cytometry); assay type: cell-based; conditions: PDL1 0, 5, 10 and 30 μg/mL
T5 construct: EL4 are a mouse lymphoma cell line which expresses PD1 on its cell surface; endogenous in cells; host or cells: EL4 mouse lymphoma cells
T5 sequence (Q02242 25-288): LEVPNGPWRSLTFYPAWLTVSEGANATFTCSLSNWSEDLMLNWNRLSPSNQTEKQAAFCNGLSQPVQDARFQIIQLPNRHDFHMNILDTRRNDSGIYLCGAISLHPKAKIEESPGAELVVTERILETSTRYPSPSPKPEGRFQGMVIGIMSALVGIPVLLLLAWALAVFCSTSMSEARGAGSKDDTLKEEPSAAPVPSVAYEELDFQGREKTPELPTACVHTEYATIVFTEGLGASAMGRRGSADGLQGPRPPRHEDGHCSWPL
Procedure: Next, a competition assay was conducted to determine whether PDL1 could inhibit the binding of the anti-PD1-scFv secreted by the genetically engineered bacteria from binding to murine PD1. EL4 cells were grown and flow cytometry protocol was conducted essentially as described above except that PDL1 was added at various concentrations (0, 5, 10, and 30 μg/mL) during the incubation of the secreted anti-PD1-scFv-V5. Rat-IgG was used as a negative control of secreted scFv.

B1: recombinant SIRPalpha: recombinant SIRPα (Rndsystems) (protein)
chain: KELKVTQPEKSVSVAAGDSTVLNCTLTSLLPVGPIRWYRGVGPSRLLIYSFAGEYVPRIRNVSDTTKRNNMDFSIRISNVTPADAGIYYCVKFQKGSSEPDTEIQSGGGTEVYVLAKPSPPEVSGPADRGIPDQKVNFTCKSHGFSPRNITLKWFKDGQELHPLETTVNPSGKNVSYNISSTVRVVLNSMDVNSKVICEVAHITLDRSPLRGIANLSNFIRVSPTVKVTQQSPTSMNQVNLTCRAERFYPEDLQLIWLENGNVSRNDTPKNLTKNTDGTYNYTSLFLVNSSAHREDVVFTCQVKHDQQPAITRNHTVLGFAHSSDQGSMQTFPDNNATHNWN
[1]
  Competition with secreted SIRPalpha for binding to CD47 on CT26 cells: able to compete

B2: Secreted anti-mCD47 scFv: anti-mCD47 scFv secreted by engineered Nissle (SYN3161), in supernatant (protein)
scFv: QVKLLQSGAALVKPGASVKMSCQASGYSFTDYWVTWVKQSHGQSLEWIGEIYPSNTVTNFNDNFKGKATLTVDKSTSTAYMELSRLTSEDSAIYYCTRIGNSGYRVGWFIYWGQGTLVTVLSGGGGSGGGGSGGGGSDTVLTQSPALAVSPGERVTISCKASESVSSHMHWYQQKPGQQPKLLIYKASNLASGVPARFSGSGSGTDFTLTIDPVEADDTATYFCQQGWNGPFTFGAGTRLELKRADAAGSGELGGSGKPIPNPLLGLDSTGSGHHHHHH
[2]
  ELISA signal, coating mCD47: 0.527
[3]
  ELISA signal, coating IgG: 0.067
  ELISA signal, coating PBS: 0.053

B3: J43-scFv-V5: single-chain variable fragment based on J43 monoclonal antibody against mouse PD-1, V5 and HIS tagged, expressed in E. coli (protein)
scFv: MQLEVRLLESGGGLVKPEGSLKLSCVASGFTFSDYFMSWVRQAPGKGLEWVAHIYTKSYNYATYYSGSVKGRFTISRDDSRSMVYLQMNNLRTEDTATYYCTRDGSGYPSLDFWGQGTQVTVSSGGGGSGGGGSGGGGSYELTQPPSASVNVGETVKITCSGDQLPKYFADWFHQRSDQTILQVIYDDNKRPSGIPERISGSSSGTTATLTIRDVRAEDEGDYYCFSGYVDSDSKLYVFGSGTQLTVLGKGELNSKLEGKPIPNPLLGLDSTRTGHHHHHH
[4]; bacterial extract (1/2)
  ELISA signal at 450 nm, mPD1 coating: 0.90
[4]; bacterial extract
  ELISA signal at 450 nm, mPD1 coating: 1.41
[5]; bacterial extract (1/2)
  ELISA signal at 450 nm, IgG coating: 0.11
  ELISA signal at 450 nm, PBS coating: 0.10
[5]; bacterial extract
  ELISA signal at 450 nm, IgG coating: 0.13
  ELISA signal at 450 nm, PBS coating: 0.11
[6]; purified scFv with anti-V5-FITC, two batches
  Binding to EL4 cells: population shift
[6]; secreted scFv 0, 2, 5 and 15 μL
  Staining of EL4 cells: dose-dependent staining
[6]; secreted scFv with anti-V5-FITC
  Binding to EL4 cells: population shift
[7]
  Competition of PDL1 against binding of secreted scFv: competed in a dose dependent manner
